In the experiment the target is SARS-CoV-2 Spike receptor-binding domain (SARS-CoV-2) (UniProt P0DTC2). The experiment is described as follows: AUC.

Take “SARS-CoV-2 Spike receptor-binding domain (from UniProt P0DTC2) (domain or fragment)”: the stoichiometry N was 2.

As usually defined, the stoichiometry N is the number of molecules, sites or subunits per partner or assembly.
